{"source": "patent US11986516B2", "about": "“Compositions and methods for treatment of SARS-COV-2” (priority 2021, dated 2024)", "key": {"[1]": {"test_system": "human reconstructed nasal epithelium model (NAS-100-BETA by MatTek)", "assay": "Nasal irritation, MTT tissue viability", "format": "cell-based", "method": "(§1) The formulations were performed using an increased dosage (e.g., 40-50 μg) compared to the study in Example 3.\n(§2) Cultures were maintained and treated topically and at the end of the treatment, tissue viability was determined using the MTT conversion assay as described in Example 3. The Relative Tissue Viability values were determined and used to classify the test articles as irritant or non-irritants according to the assay criteria. As a secondary output, levels of the proinflammatory mediator IL-1α were determined as described in Example 3."}, "[2]": {"assay": "Visual solubility assessment of ACE-2 protein in liquid excipients", "format": "physicochemical", "conditions": "for Visual observation for solubility: 1.6 μg API in 3.0 g", "method": "The solubility of compounds in liquid excipients was determined using visual solubility protocol. In this method, about 3.0 g of excipients was accurately weighed in individually labelled 20 mL scintillation vials (USP Type-I). To these vials, accurately measured 1 (1.67 μg) aliquots of protein was added and tightly closed. […] The vials were kept at ambient temperature without agitation for 72 hours and visually inspected at 0, 24, and 72 hours."}, "[3]": {"test_system": "reconstructed human skin model (Epiderm, EPI-200-X)", "assay": "Skin permeation of rhACE-2 (ACE-2 ELISA of receiving medium)", "format": "in vitro ADME", "conditions": "for skin permeation value (rhACE-2 in receiving medium): 50 μg/ml rhACE-2 in formulation", "method": "In order to determine the skin permeation profile, a reconstructed human skin model (Epiderm, EPI-200-X manufactured by MatTek Corporation) was used. This model includes normal, human-derived epidermal keratinocytes (NHEK) which have been cultured to form a multilayered, highly differentiated model of the human epidermis. The NHEK cells are cultured on specially-prepared cell culture inserts using serum free medium and attain levels of differentiation. The EpiDerm Skin Model closely parallels human skin, thus providing a useful in vitro means to assess dermal irritancy and toxicology.\nAfter an acclimation period, the skin cultures were treated in triplicates PBS (negative control/baseline), vehicle formulation (“Placebo”), and formulation containing 50 μg/ml ACE-2. At the end of each time point culture medium was completely removed and replaced with fresh medium. The amount of permeated ACE-2 over time was determined by ACE-2 ELISA. Levels of ACE-2 in the receiving medium were determined at the following timepoints: 0 minutes, 5 minutes, 30 minutes, 60 minutes, 180 minutes, 540 minutes, 1260 minutes, and 1440 minutes."}, "IL-1α [4]": {"test_system": "IL-1α", "assay": "Nasal irritation, IL-1α levels", "format": "cell-based, human", "method": "as §1, §2"}, "[5]": {"test_system": "human nasal epithelial cultures (EpiAirway, NAS-100-beta)", "assay": "Nasal permeation of rhACE-2 (ELISA of receiving medium)", "format": "in vitro ADME", "conditions": "for nasal permeation value (rhACE-2 in receiving medium): 50 μg/ml rhACE-2 in formulation", "description": "In order to determine the nasal permeation profile, human nasal epithelial cultures (EpiAirway, NAS-100-beta manufactured by MatTek Corporation) were used.\nAt the end of each time point, culture medium was completely removed and replaced with fresh medium."}, "[6]": {"test_system": "hCoV-19/South Africa/KRISP-K005325/2020 (SA)", "format": "cell-based, SARS-CoV-2"}, "[7]": {"test_system": "hCoV-19/USA-WA1/2020 (WA)", "format": "cell-based, SARS-CoV-2", "conditions": "in µg/mL"}, "[8]": {"test_system": "EpiDerm™ cultures (EPI-200)", "assay": "In Vitro EpiDerm Skin Irritation Test (EPI-200-SIT), MTT tissue viability", "format": "cell-based, human"}, "IL-1α [9]": {"test_system": "IL-1α", "assay": "EpiDerm skin irritation, IL-1α secretion (Quantikine ELISA)", "format": "cell-based, human", "conditions": "EpiDerm cultures, media collected after 24 hours; rhACE-2 2.5-40 μg/ml"}}, "data": [{"compound": "rhACE-2", "values": [{"measurement": "classification as nasal irritant", "setting": "[1]; all tested concentrations, 3.06-50 μg/ml", "value": "nasal non-irritants"}, {"measurement": "Visual observation for solubility", "setting": "[2]; in 1X PBS, 24 hr", "value": "Clear solution"}, {"measurement": "Visual observation for solubility", "setting": "[2]; in 1X PBS, 72 hr", "value": "Clear solution"}, {"measurement": "Visual observation for solubility", "setting": "[2]; in 1X PBS, Initial Observation", "value": "Clear solution"}, {"measurement": "Visual observation for solubility", "setting": "[2]; in Glycerin, 24 hr", "value": "Clear solution"}, {"measurement": "Visual observation for solubility", "setting": "[2]; in Glycerin, 72 hr", "value": "Clear solution"}, {"measurement": "Visual observation for solubility", "setting": "[2]; in Glycerin, Initial Observation", "value": "Clear solution"}, {"measurement": "Visual observation for solubility", "setting": "[2]; in Hexylene Glycol, 24 hr", "value": "Clear solution"}, {"measurement": "Visual observation for solubility", "setting": "[2]; in Hexylene Glycol, 72 hr", "value": "Clear solution"}, {"measurement": "Visual observation for solubility", "setting": "[2]; in Hexylene Glycol, Initial Observation", "value": "Clear solution"}, {"measurement": "Visual observation for solubility", "setting": "[2]; in Polyethylene Glycol 400, 24 hr", "value": "Clear solution"}, {"measurement": "Visual observation for solubility", "setting": "[2]; in Polyethylene Glycol 400, 72 hr", "value": "Clear solution"}, {"measurement": "Visual observation for solubility", "setting": "[2]; in Polyethylene Glycol 400, Initial Observation", "value": "Clear solution"}, {"measurement": "Visual observation for solubility", "setting": "[2]; in Polysorbate 20, 24 hr", "value": "Clear yellow"}, {"measurement": "Visual observation for solubility", "setting": "[2]; in Polysorbate 20, 72 hr", "value": "Clear yellow"}, {"measurement": "Visual observation for solubility", "setting": "[2]; in Polysorbate 20, Initial Observation", "value": "Clear yellow"}, {"measurement": "Visual observation for solubility", "setting": "[2]; in Propylene Glycol, 24 hr", "value": "Clear solution"}, {"measurement": "Visual observation for solubility", "setting": "[2]; in Propylene Glycol, 72 hr", "value": "Clear solution"}, {"measurement": "Visual observation for solubility", "setting": "[2]; in Propylene Glycol, Initial Observation", "value": "Clear solution"}, {"measurement": "Visual observation for solubility", "setting": "[2]; in Purified Water, USP, 24 hr", "value": "Clear solution"}, {"measurement": "Visual observation for solubility", "setting": "[2]; in Purified Water, USP, 72 hr", "value": "Clear solution"}, {"measurement": "Visual observation for solubility", "setting": "[2]; in Purified Water, USP, Initial Observation", "value": "Clear solution"}, {"measurement": "solubility in all the excipients tested", "setting": "[2]; propylene glycol, hexylene glycol, glycerin, polyethylene glycol 400, polysorbate 20, purified water, PBS", "value": "readily soluble"}, {"measurement": "skin permeation value (rhACE-2 in receiving medium)", "setting": "[3]; 5 minutes post application", "value": 0.402, "unit": "ng/ml"}, {"measurement": "skin permeation value (rhACE-2 in receiving medium)", "setting": "[3]; 30 minutes post application", "value": 0.578, "unit": "ng/ml"}, {"measurement": "skin permeation value (rhACE-2 in receiving medium)", "setting": "[3]; 60 minutes post application", "value": 1.28, "unit": "ng/ml"}, {"measurement": "skin permeation value (rhACE-2 in receiving medium)", "setting": "[3]; 180 minutes post application", "value": 0.0196, "unit": "ng/ml"}, {"measurement": "skin permeation value (rhACE-2 in receiving medium)", "setting": "[3]; 540 minutes post application", "value": 0, "unit": "ng/ml"}, {"measurement": "skin permeation value (rhACE-2 in receiving medium)", "setting": "[3]; 1260 minutes post application", "value": 0.98, "unit": "ng/ml"}, {"measurement": "skin permeation value (rhACE-2 in receiving medium)", "setting": "[3]; 1440 minutes post application", "value": 0.029, "unit": "ng/ml"}, {"measurement": "permeation through reconstructed human skin tissue", "setting": "[3]; at 50 μg/ml", "value": "minimal to negligible permeation"}, {"measurement": "average IL-1α levels", "setting": "IL-1α [4]; rhACE-2 3.06 μg/ml", "value": 0, "unit": "ng/mL"}, {"measurement": "average IL-1α levels", "setting": "IL-1α [4]; rhACE-2 6.125 μg/ml", "value": 0, "unit": "ng/mL"}, {"measurement": "nasal permeation value (rhACE-2 in receiving medium)", "setting": "[5]; 5 minutes post application", "value": 0.035, "unit": "ng/ml"}, {"measurement": "nasal permeation value (rhACE-2 in receiving medium)", "setting": "[5]; 180 minutes post application", "value": 0.06, "unit": "ng/ml"}, {"measurement": "nasal permeation value (rhACE-2 in receiving medium)", "setting": "[5]; 540 minutes post application", "value": 0.413, "unit": "ng/ml"}, {"measurement": "nasal permeation value (rhACE-2 in receiving medium)", "setting": "[5]; 1260 minutes post application", "value": 1.03, "unit": "ng/ml"}, {"measurement": "nasal permeation value (rhACE-2 in receiving medium)", "setting": "[5]; 1440 minutes post application", "value": 0.249, "unit": "ng/ml"}, {"measurement": "permeation through reconstructed human nasal tissue", "setting": "[5]; at 50 μg/ml", "value": "minimal to negligible permeation"}]}, {"compound": "ACE2", "values": [{"measurement": "EC50", "setting": "[6]", "value": 1.18, "unit": "µg/mL"}, {"measurement": "EC50", "setting": "[7]", "value": 9.206}]}, {"compound": "CCCCCCCCCCCCOS(=O)(=O)[O-].[Na+]", "note": "[5% SDS]", "values": [{"measurement": "mean viability of positive control tissues expressed as percentage of the negative control tissues", "setting": "[8]", "value": 4, "unit": "%"}, {"measurement": "mean viability of positive control tissues expressed as percentage of the negative control tissues", "setting": "[1]; nasal epithelium model", "value": 2, "unit": "%"}, {"measurement": "secretion of IL-1α", "setting": "IL-1α [9]", "value": "significant increase in IL-1α secretion"}]}]}
